From article PMC6047819, “Small-angle X-ray scattering study of the kinetics of light-dark transition in a LOV protein” (PLoS ONE, 2018)
Substitutions are numbered along the chain they refer to. In names and notes the source's numbering stands.

Experiments:
[1] = target: the molecule itself; test: SAXS; steady state, fully populated light state (continuous blue-light LED, 450 nm); beamline BM29; 20°C; 10 mM Tris, 10 mM NaCl, pH 7; data of 2.5 and 6.1 mg/mL merged; molecular mass from QR after Rambo and Tainer
[2] = target: the molecule itself; test: crystal structure; dark-state crystal structure of the double mutant, FMN bound (PDB 6GG9)

B1: PpSB1-LOV-R66I (natural protein, Pseudomonas putida)
chain: MINAQLLQSMVDASNDGIVVAEKEGDDTILIYVNAAFEYLTGYSRDEILYQDCRFLQGDDRDQLGIARIRKAMAEGRPCREVLRNYRKDGSAFWNELSITPVKSDFDQRTYFIGIQKDVSRQVELERELAELRARPKPDERA
notes: PpSB1-LOV, short LOV protein of Pseudomonas putida: LOV core domain flanked by N- and C-terminal helices; mutant R66I; It says that the N-terminal 20 and the C-terminal 8-9 amino acids are disordered in the wild-type crystal structures; also called PpSB1-R66I; PpSB1-LOV mutant R66I; source: purified (Ni-NTA Superflow, SEC on Superdex 200)
stoichiometry N [1]: 2

B2: PpSB1-LOV-R61H/R66I (natural protein, Pseudomonas putida)
chain: B1 chain with R61H
notes: PpSB1-LOV, short LOV protein of Pseudomonas putida; double mutant R61H/R66I; dark-state crystal structure PDB 6GG9; also called PpSB1-R61H/R66I-LOV; double mutant
binding result [2]: binds
